Assay results reported in patent US20200216522A1 (DENALI THERAPEUTICS, published 2020).

T1: Peptide_012 (human)
T1 peptide: SEEPGSETSDAKSTP

T2: Peptide_061 (human)
T2 peptide: PGGGSVQIVYKPVDL

T3: Peptide_046 (human)
T3 peptide: VAVVRTPPKSPSSAK

T4: Peptide_086 (human)
T4 peptide: ATLADEVSASLAKQG

T5: Peptide_029 (human)
T5 peptide: KAKGADGKTKIATPR

T6: Peptide_038 (human)
T6 peptide: GEPPKSGDRSGYSSP

T7: Peptide_075 (human)
T7 peptide: IETHKLTFRENAKAK

T8: Peptide_006 (human)
T8 peptide: QGGYTMHQDQEGDTD

T9: Peptide_037 (human)
T9 peptide: TPPSSGEPPKSGDRS

T10: Peptide_003 (human)
T10 peptide: MEDHAGTYGLGDRKD

T11: Peptide_076 (human)
T11 peptide: LTFRENAKAKTDHGA

T12: Peptide_042 (human)
T12 peptide: PGSRSRTPSLPTPPT

T13: Peptide_072 (human)
T13 peptide: SLDNITHVPGGGNKK

T14: Peptide_087 (human)
T14 peptide: TLADEVSASLAKQGL

T15: Peptide_035 (human)
T15 peptide: IPAKTPPAPKTPPSS

T16: Peptide_016 (human)
T16 peptide: TAPLVDEGAPGKQAA

T17: Peptide_069 (human)
T17 peptide: SEKLDFKDRVQSKIG

T18: Peptide_028 (human)
T18 peptide: GSDDKKAKGADGKTK

T19: Peptide_033 (human)
T19 peptide: GQKGQANATRIPAKT

T20: Peptide_077 (human)
T20 peptide: NAKAKTDHGAEIVYK

T21: Peptide_034 (human)
T21 peptide: ANATRIPAKTPPAPK

T22: Peptide_081 (human)
T22 peptide: GDTSPRHLSNVSSTG

T23: Peptide_060 (human)
T23 peptide: NIKHVPGGGSVQIVY

T24: Peptide_010 (human)
T24 peptide: SPLQTPTEDGSEEPG

T25: Peptide_059 (human)
T25 peptide: CGSKDNIKHVPGGGS

T26: Peptide_048 (human)
T26 peptide: PSSAKSRLQTAPVPM

T27: Peptide_026 (human)
T27 peptide: RMVSKSKDGTGSDDK

T28: Peptide_071 (human)
T28 peptide: QSKIGSLDNITHVPG

T29: Peptide_066 (human)
T29 peptide: GNIHHKPGGGQVEVK

T30: Peptide_082 (human)
T30 peptide: RHLSNVSSTGSIDMV

T31: Peptide_064 (human)
T31 peptide: SKVTSKCGSLGNIHH

T32: Peptide_025 (human)
T32 peptide: HVTQARMVSKSKDGT

T33: Peptide_031 (human)
T33 peptide: IATPRGAAPPGQKGQ

T34: Peptide_030 (human)
T34 peptide: DGKTKIATPRGAAPP

T35: Peptide_074 (human)
T35 peptide: GGNKKIETHKLTFRE

B1: chimeric IgG clone 1D10 (antibody, V domains shown)
VH: EVQLQQSGAELVRPGASVKLSCTASGFNIKDSLMHWMKQRPEQGLEWIGWIDPEDGETKYAPKFQDKATLTADTSSNAAYLQLSSLTSEDTAIYYCVRGDWDGGYWGQGTTLTVSS
VL: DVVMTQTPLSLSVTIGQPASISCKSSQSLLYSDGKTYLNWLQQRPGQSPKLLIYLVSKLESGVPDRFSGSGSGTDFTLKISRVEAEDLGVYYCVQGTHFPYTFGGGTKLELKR
notes: mouse-human chimeric IgG from HEK293
B2: murine anti-Tau hybridoma antibody 17G2.A1 (antibody, V domains shown)
VH: QVQLQQPGAELVGPGSSVKLSCKASGYTFINYWIDWMKQSPGQGLEWIGNIYPSDSESHYNQKFTDKATLTVDISSSTAYLQLSSLTSEDSAVYYCALYSKGYWGQGTSVTVSS
VL: DVLMTQTPLSLPVTLGDQASISCRSSQNIVHTNGNTYLEWYLQKPGQSPKLLIYKLSSRFSGVPDRFSGSGSGTDFTLKISRVEAEDLGVYYCFQGSHLPFTFGGGTKLEIKR
notes: mouse IgG from hybridoma; also called anti-Tau 17G2.A1

Columns and labels:
Experiment in all cases: peptide array
Peptide_012 = biological target: T1, Peptide_012
In short: (§1)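 Overlapping 15-mer peptides (5-aa offset) spanning human 2N4R Tau spotted in triplicate on slides; antibodies bound 2 h at room temperature in 3% BSA-TBST (chimeric IgG 5 μg/mL; mouse IgG 30 μg/mL). Detection 1 h with fluorescent anti-human (568 nm) or anti-mouse (647 nm) secondary; fluorescence imaging aligned to array map.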

Peptide_061 = biological target: T2, Peptide_061
In short: as §1

Peptide_046 = biological target: T3, Peptide_046
In short: as §1

Peptide_086 = biological target: T4, Peptide_086
In short: as §1

Peptide_029 = biological target: T5, Peptide_029
In short: as §1

Peptide_038 = biological target: T6, Peptide_038
In short: as §1

Peptide_075 = biological target: T7, Peptide_075
In short: as §1

Peptide_006 = biological target: T8, Peptide_006
In short: as §1

Peptide_037 = biological target: T9, Peptide_037
In short: as §1

Peptide_003 = biological target: T10, Peptide_003
In short: as §1

Peptide_076 = biological target: T11, Peptide_076
In short: as §1

Peptide_042 = biological target: T12, Peptide_042
In short: as §1

Peptide_072 = biological target: T13, Peptide_072
In short: as §1

Peptide_087 = biological target: T14, Peptide_087
In short: as §1

Peptide_035 = biological target: T15, Peptide_035
In short: as §1

Peptide_016 = biological target: T16, Peptide_016
In short: as §1

Peptide_069 = biological target: T17, Peptide_069
In short: as §1

Peptide_028 = biological target: T18, Peptide_028
In short: as §1

Peptide_033 = biological target: T19, Peptide_033
In short: as §1

Peptide_077 = biological target: T20, Peptide_077
In short: as §1

Peptide_034 = biological target: T21, Peptide_034
In short: as §1

Peptide_081 = biological target: T22, Peptide_081
In short: as §1

Peptide_060 = biological target: T23, Peptide_060
In short: as §1

Peptide_010 = biological target: T24, Peptide_010
In short: as §1

Peptide_059 = biological target: T25, Peptide_059
In short: as §1

Peptide_048 = biological target: T26, Peptide_048
In short: as §1

Peptide_026 = biological target: T27, Peptide_026
In short: as §1

Peptide_071 = biological target: T28, Peptide_071
In short: as §1

Peptide_066 = biological target: T29, Peptide_066
In short: as §1

Peptide_082 = biological target: T30, Peptide_082
In short: as §1

Peptide_064 = biological target: T31, Peptide_064
In short: as §1

Peptide_025 = biological target: T32, Peptide_025
In short: as §1

Peptide_031 = biological target: T33, Peptide_031
In short: as §1

Peptide_030 = biological target: T34, Peptide_030
In short: as §1

Peptide_074 = biological target: T35, Peptide_074
In short: as §1

Binder	binding result (Peptide_012)	binding result (Peptide_061)	binding result (Peptide_046)	binding result (Peptide_086)	binding result (Peptide_029)	binding result (Peptide_038)	binding result (Peptide_075)	binding result (Peptide_006)	binding result (Peptide_037)	binding result (Peptide_003)	binding result (Peptide_076)	binding result (Peptide_042)	binding result (Peptide_072)	binding result (Peptide_087)	binding result (Peptide_035)	binding result (Peptide_016)	binding result (Peptide_069)	binding result (Peptide_028)	binding result (Peptide_033)	binding result (Peptide_077)	also measured
B1	no binding (tested: 5 ug/mL)	no binding (tested: 5 ug/mL)	no binding (tested: 5 ug/mL)	no binding (tested: 5 ug/mL)	no binding (tested: 5 ug/mL)	no binding (tested: 5 ug/mL)	no binding (tested: 5 ug/mL)	no binding (tested: 5 ug/mL)	no binding (tested: 5 ug/mL)	no binding (tested: 5 ug/mL)	no binding (tested: 5 ug/mL)	no binding (tested: 5 ug/mL)	no binding (tested: 5 ug/mL)	no binding (tested: 5 ug/mL)	no binding (tested: 5 ug/mL)	no binding (tested: 5 ug/mL)	no binding (tested: 5 ug/mL)	no binding (tested: 5 ug/mL)	no binding (tested: 5 ug/mL)	no binding (tested: 5 ug/mL)	binding result (Peptide_034): no binding (tested: 5 ug/mL); binding result (Peptide_081): no binding (tested: 5 ug/mL); binding result (Peptide_060): no binding (tested: 5 ug/mL); binding result (Peptide_010): no binding (tested: 5 ug/mL); binding result (Peptide_059): no binding (tested: 5 ug/mL); binding result (Peptide_048): no binding (tested: 5 ug/mL); binding result (Peptide_026): no binding (tested: 5 ug/mL); binding result (Peptide_071): no binding (tested: 5 ug/mL); binding result (Peptide_066): no binding (tested: 5 ug/mL); binding result (Peptide_082): no binding (tested: 5 ug/mL); binding result (Peptide_064): no binding (tested: 5 ug/mL); binding result (Peptide_025): no binding (tested: 5 ug/mL); binding result (Peptide_031): no binding (tested: 5 ug/mL); binding result (Peptide_030): no binding (tested: 5 ug/mL); binding result (Peptide_074): no binding (tested: 5 ug/mL)
B2	no binding (tested: 30 ug/mL)	no binding (tested: 30 ug/mL)	no binding (tested: 30 ug/mL)	no binding (tested: 30 ug/mL)	no binding (tested: 30 ug/mL)	binds	no binding (tested: 30 ug/mL)	no binding (tested: 30 ug/mL)	no binding (tested: 30 ug/mL)	no binding (tested: 30 ug/mL)	no binding (tested: 30 ug/mL)	no binding (tested: 30 ug/mL)	no binding (tested: 30 ug/mL)	no binding (tested: 30 ug/mL)	no binding (tested: 30 ug/mL)	no binding (tested: 30 ug/mL)	no binding (tested: 30 ug/mL)	no binding (tested: 30 ug/mL)	no binding (tested: 30 ug/mL)	no binding (tested: 30 ug/mL)	binding result (Peptide_034): no binding (tested: 30 ug/mL); binding result (Peptide_081): no binding (tested: 30 ug/mL); binding result (Peptide_060): no binding (tested: 30 ug/mL); binding result (Peptide_010): no binding (tested: 30 ug/mL); binding result (Peptide_059): no binding (tested: 30 ug/mL); binding result (Peptide_048): no binding (tested: 30 ug/mL); binding result (Peptide_026): no binding (tested: 30 ug/mL); binding result (Peptide_071): no binding (tested: 30 ug/mL); binding result (Peptide_066): no binding (tested: 30 ug/mL); binding result (Peptide_082): no binding (tested: 30 ug/mL); binding result (Peptide_064): no binding (tested: 30 ug/mL); binding result (Peptide_025): no binding (tested: 30 ug/mL); binding result (Peptide_031): no binding (tested: 30 ug/mL); binding result (Peptide_030): no binding (tested: 30 ug/mL); binding result (Peptide_074): no binding (tested: 30 ug/mL)
